Source: patent US20110262445A1 (CEPHALON AUSTRALIA, published 2011)

T1: human IL-23 (human, UniProt P29460 23-328; Q9NPF7 20-189)
T1 construct: Recombinant (Ebioscience); HIS-tagged in flow cytometry, biotinylated in some assays; also called hIL-23; rhIL-23
T1 sequence 1: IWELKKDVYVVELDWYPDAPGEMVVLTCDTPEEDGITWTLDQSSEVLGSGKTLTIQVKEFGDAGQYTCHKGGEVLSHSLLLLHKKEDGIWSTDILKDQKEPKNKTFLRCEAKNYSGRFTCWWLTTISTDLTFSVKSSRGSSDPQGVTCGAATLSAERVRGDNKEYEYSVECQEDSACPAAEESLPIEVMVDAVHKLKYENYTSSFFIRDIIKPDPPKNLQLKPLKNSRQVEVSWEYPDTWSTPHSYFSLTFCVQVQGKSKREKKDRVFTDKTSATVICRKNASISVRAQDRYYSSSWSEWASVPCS
T1 sequence 2: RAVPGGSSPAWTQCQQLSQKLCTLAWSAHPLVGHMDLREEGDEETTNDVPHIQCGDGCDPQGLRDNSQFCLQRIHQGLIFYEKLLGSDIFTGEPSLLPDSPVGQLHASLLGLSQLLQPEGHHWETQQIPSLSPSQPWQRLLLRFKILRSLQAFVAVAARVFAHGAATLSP

T2: human IL-12 (human, UniProt P29460 23-328; P29459 23-219)
T2 construct: Recombinant (Peprotech); FLAG-tagged IL-12 in the flow cytometry assays, biotinylated in the IL-12Rβ2 assay; also called hIL-12
T2 sequence 1: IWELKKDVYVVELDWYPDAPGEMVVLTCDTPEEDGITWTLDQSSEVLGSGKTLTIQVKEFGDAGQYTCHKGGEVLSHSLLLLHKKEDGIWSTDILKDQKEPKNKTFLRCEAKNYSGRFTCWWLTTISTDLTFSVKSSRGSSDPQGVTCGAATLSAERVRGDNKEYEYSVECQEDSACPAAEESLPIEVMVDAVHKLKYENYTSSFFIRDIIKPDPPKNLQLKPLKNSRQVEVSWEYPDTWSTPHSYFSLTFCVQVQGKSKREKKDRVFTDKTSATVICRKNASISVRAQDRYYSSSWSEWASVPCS
T2 sequence 2: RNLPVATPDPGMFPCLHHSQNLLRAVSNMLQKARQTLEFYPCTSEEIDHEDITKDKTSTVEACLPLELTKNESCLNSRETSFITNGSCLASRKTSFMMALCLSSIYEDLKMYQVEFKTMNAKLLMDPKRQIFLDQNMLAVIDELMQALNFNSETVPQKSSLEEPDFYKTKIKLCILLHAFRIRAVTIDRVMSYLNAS


Assays:
human IL-23 [1] = molecular target: T1, human IL-23; test: SPR, purified scFv captured via FLAG
Experimental: (§1) A number of the scFv variants presented in TABLE 4 were selected for full characterization of binding kinetics, encompassing a broad range of mutation profiles and binding affinities. Large-scale protein expressions were carried out for each scFv. The expressed scFvs were purified as monomeric proteins and tested for binding against IL-12 and IL-23 by SPR (TABLE 5).
(§2) Purified scFvs were subjected to full kinetic characterization using a BIAcore T100 biosensor (GE Healthcare). Approximately 10,000 RU of the proprietry FLAG-specific capture molecule was immobilized on a CM5 Series S Sensor chip, using standard amine coupling chemistry in flow cells (FC) 1 and FC2 (or alternatively FC3 and FC4) of the BIAcore T100 Biosensor. The running buffer used was HBS-EP+ (BIAcore) and interactions measured at 30° C. or 35° C. to promote differentiation of scFvs with very similiar kd values. Peak purified FLAG-tagged scFvs (prepared as described in the previous paragraph) were diluted to 10 nM in running buffer, and captured on FC2 at a flow rate of 10 μl/min in order to capture 50 RU of scFv (typically 60 sec was sufficient to capture this level of tagged scFv). After an appropriate stabilization period, the target, IL-12 or IL-23, were passed over FC1 and FC2 at a flow rate of 60 μl/min at concentrations ranging from 81 nM to 0.13 nM (using a five-fold dilution of IL-12) and 81 nM to 1 nM (using a three-fold dilution of IL-23). The contact time for association was 180 sec and dissociation measured for 10 mins for the highest concentration and 300 sec for all other concentrations in the series. The sensorgram data from FC2 was subtracted from FC1 and a buffer only control. The curves were fitted using a 1:1 Langmuir equation to generate the kₐ, kd and KD values.

human IL-12 [2] = molecular target: T2, human IL-12; test: SPR, purified scFv captured via FLAG
Experimental: as §1, §2

human IL-23 [3] = molecular target: T1, human IL-23; test: SPR screen, crude scFv captured via FLAG
Experimental: Approximately 6500 individual scFvs recovered from the ribosome display reactions were expressed and screened for binding against IL-23 using a high-throughout SPR assay. The variants were ranked according to the kd and the best variants were sequenced at the nucleic acid level.
High-throughput SPR screening was conducted using a BIAcore A100 biosensor (GE Healthcare). Approximately 10 000 RU of the proprietary FLAG-specific capture molecule was immobilized on a CM5 Series S Sensor chip, using standard amine coupling chemistry on Spots 1 & 5 (outer spots) and 3,000RU to Spots 2 & 4 (inner spots) in each of the four flow cells of the BIAcore A100 Biosensor. The running buffer used was HBS-EP+ (BIAcore) and all interactions measured at 25° C. Crude periplasmic preparations of FLAG-tagged scFvs (prepared as described in the previous paragraph), were diluted two-fold in running buffer before capturing at a flow rate of 5u1/min for 60 sec. Approx. 100RU (on outer spots) and 50RU (on inner spots) of tagged scFv was captured. Following a 2 min stabilization period, IL-23 was passed over all spots of all four flow cells simultaneously at a flow rate of 30u1/min for 120 sec and dissociation monitored for 200 sec. Generated sensorgrams were referenced against the unmodified spot 3 of each flow cell, and fitted using a 1:1 Langmuir equation with R1 set to local to account for varying ligand densities to generate the kₐ, kd and KD values.

human IL-23 [4] = molecular target: T1, human IL-23; test: ELISA, coated IL-23
Procedure, shortened: (§3)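 Cytokine at 1 μg/mL in carbonate buffer pH 9.6 was coated overnight at 4° C onto Maxisorp plates and blocked with 1% BSA in PBS for 1 hour at 25° C. Antibody titrations were bound for 1 hour at 25° C, then detected with goat anti-human IgG or anti-murine immunoglobulin HRP (1:2000, 1 hour). TMB was developed and stopped with 1M HCl. The binding result is absorbance at 450 nm (reference 620 nm).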

human IL-12 [5] = molecular target: T2, human IL-12; test: ELISA, coated IL-12
Procedure, shortened: as §3

| Binder | Kd (human IL-23 [1]) [nM] | koff (human IL-23 [1]) [s⁻¹] | kon (human IL-23 [1]) [M⁻¹ s⁻¹] | Kd (human IL-12 [2]) [nM] | koff (human IL-12 [2]) [s⁻¹] | kon (human IL-12 [2]) [M⁻¹ s⁻¹] | koff (human IL-23 [3]) [s⁻¹] | binding result (human IL-23 [4]) | binding result (human IL-12 [5]) |
| --- | --- | --- | --- | --- | --- | --- | --- | --- | --- |
| scFv AQ-G10 (scFv, scFv-80 variant: VH K12E, R66G; not shown: proprietary C-terminal FLAG tag) scFv: QVQLVQSGAEVEKPGASVKVSCKASGYTFTDYYLHWVRQAPGQGLEWMGWIDPENGDTEYAPKFQGGVTMTTDTSTSTAYMELRSLRSDDTAVYYCNANKELRYFDVWGQGTMVTVSSGGGGSGGGGSGGGGSEIVMTQSPATLSVSPGERATLSCRASQSISINLHWYQQKPGQAPRLLIYFASQSISGIPARFSGSGSGTEFTLTISSLQSEDFAVYYCQQSNSFPLTFGGGTKVEIKR | 0.17 | 4.9e-05 | 280000 | 0.35 | 0.00052 | 1.5e+06 | 0.00029 |  |  |
| scFv AU-G9 (scFv, scFv-80 variant: VH Q43R; VL I55T; not shown: proprietary C-terminal FLAG tag) scFv: QVQLVQSGAEVKKPGASVKVSCKASGYTFTDYYLHWVRQAPGRGLEWMGWIDPENGDTEYAPKFQGRVTMTTDTSTSTAYMELRSLRSDDTAVYYCNANKELRYFDVWGQGTMVTVSSGGGGSGGGGSGGGGSEIVMTQSPATLSVSPGERATLSCRASQSISINLHWYQQKPGQAPRLLIYFASQSTSGIPARFSGSGSGTEFTLTISSLQSEDFAVYYCQQSNSFPLTFGGGTKVEIKR | 0.13 | 4.4e-05 | 340000 | 0.11 | 0.00024 | 2.1e+06 | 0.00031 |  |  |
| scFv AV-F11 (scFv, scFv-80 variant: VH S112P; VL I75T; not shown: proprietary C-terminal FLAG tag) scFv: QVQLVQSGAEVKKPGASVKVSCKASGYTFTDYYLHWVRQAPGQGLEWMGWIDPENGDTEYAPKFQGRVTMTTDTSTSTAYMELRSLRSDDTAVYYCNANKELRYFDVWGQGTMVTVPSGGGGSGGGGSGGGGSEIVMTQSPATLSVSPGERATLSCRASQSISINLHWYQQKPGQAPRLLIYFASQSISGIPARFSGSGSGTEFTLTTSSLQSEDFAVYYCQQSNSFPLTFGGGTKVEIKR | 0.093 | 2.5e-05 | 270000 | 0.2 | 0.00033 | 1.6e+06 | 0.00028 |  |  |
| Antibody 128 (antibody, human IgG1, kappa) heavy chain: not shown light chain: DIQMTQSPSSVSATVGDRVTITCRASQSISINLHWYQQKPGKAPKLLIYFASQSISGVPSRFSGSGSGTDFSLTINSLQPEDFATYYCQQSNSFPLTFGGGTKVEIKRTVAAPSVFIFPPSDEQLKSGTASVVCLLNNFYPREAKVQWKVDNALQSGNSQESVTEQDSKDSTYSLSSTLTLSKADYEKHKVYACEVTHQGLSSPVTKSFNRGEC |  |  |  |  |  |  |  | binds | binds |
| Antibody 130 (antibody, human IgG1, kappa) heavy: not shown light: DIQMTQSPSSVSASPGDRVTITCRASQSISINLHWYQQKPGKAPKLLIYFASQSISGVPSRFSGSGSGTDFSLTINSLQPEDFATYYCQQSNSFPLTFGGGTKVEIKRTVAAPSVFIFPPSDEQLKSGTASVVCLLNNFYPREAKVQWKVDNALQSGNSQESVTEQDSKDSTYSLSSTLTLSKADYEKHKVYACEVTHQGLSSPVTKSFNRGEC |  |  |  |  |  |  |  | binds | binds |

Now from value to binder:

| Kd (human IL-23 [1]) [nM] | koff (human IL-23 [1]) [s⁻¹] | kon (human IL-23 [1]) [M⁻¹ s⁻¹] | Kd (human IL-12 [2]) [nM] | koff (human IL-12 [2]) [s⁻¹] | kon (human IL-12 [2]) [M⁻¹ s⁻¹] | koff (human IL-23 [3]) [s⁻¹] | binding result (human IL-23 [4]) | binding result (human IL-12 [5]) | Binder |
| --- | --- | --- | --- | --- | --- | --- | --- | --- | --- |
| 0.16 | 4.4e-05 | 310000 | 0.12 | 0.00023 | 2e+06 | 0.00045 |  |  | scFv BB-A9 (scFv, scFv-80 variant: VH T28A, T68S; not shown: proprietary C-terminal FLAG tag) scFv: QVQLVQSGAEVKKPGASVKVSCKASGYAFTDYYLHWVRQAPGQGLEWMGWIDPENGDTEYAPKFQGRVSMTTDTSTSTAYMELRSLRSDDTAVYYCNANKELRYFDVWGQGTMVTVSSGGGGSGGGGSGGGGSEIVMTQSPATLSVSPGERATLSCRASQSISINLHWYQQKPGQAPRLLIYFASQSISGIPARFSGSGSGTEFTLTISSLQSEDFAVYYCQQSNSFPLTFGGGTKVEIKR |
| 0.12 | 3.7e-05 | 300000 | 0.12 | 0.00024 | 2e+06 | 0.00029 |  |  | scFv BU-B1 (scFv, scFv-80 variant: VH L34M; not shown: proprietary C-terminal FLAG tag) scFv: QVQLVQSGAEVKKPGASVKVSCKASGYTFTDYYMHWVRQAPGQGLEWMGWIDPENGDTEYAPKFQGRVTMTTDTSTSTAYMELRSLRSDDTAVYYCNANKELRYFDVWGQGTMVTVSSGGGGSGGGGSGGGGSEIVMTQSPATLSVSPGERATLSCRASQSISINLHWYQQKPGQAPRLLIYFASQSISGIPARFSGSGSGTEFTLTISSLQSEDFAVYYCQQSNSFPLTFGGGTKVEIKR |
| 0.098 | 3e-05 | 310000 | 0.089 | 0.00018 | 2e+06 | 0.00028 |  |  | scFv CE-B1 (scFv, scFv-80 variant: VH F29L; not shown: proprietary C-terminal FLAG tag) scFv: QVQLVQSGAEVKKPGASVKVSCKASGYTLTDYYLHWVRQAPGQGLEWMGWIDPENGDTEYAPKFQGRVTMTTDTSTSTAYMELRSLRSDDTAVYYCNANKELRYFDVWGQGTMVTVSSGGGGSGGGGSGGGGSEIVMTQSPATLSVSPGERATLSCRASQSISINLHWYQQKPGQAPRLLIYFASQSISGIPARFSGSGSGTEFTLTISSLQSEDFAVYYCQQSNSFPLTFGGGTKVEIKR |
| 0.13 | 4.1e-05 | 320000 | 0.23 | 0.00044 | 1.9e+06 | 0.00026 |  |  | scFv CR-B1 (scFv, scFv-80 variant: VH D85E; not shown: proprietary C-terminal FLAG tag) scFv: QVQLVQSGAEVKKPGASVKVSCKASGYTFTDYYLHWVRQAPGQGLEWMGWIDPENGDTEYAPKFQGRVTMTTDTSTSTAYMELRSLRSEDTAVYYCNANKELRYFDVWGQGTMVTVSSGGGGSGGGGSGGGGSEIVMTQSPATLSVSPGERATLSCRASQSISINLHWYQQKPGQAPRLLIYFASQSISGIPARFSGSGSGTEFTLTISSLQSEDFAVYYCQQSNSFPLTFGGGTKVEIKR |
| 0.15 | 5.5e-05 | 360000 | 0.14 | 0.00031 | 2.3e+06 | 0.00036 |  |  | scFv AX-G4 (scFv, scFv-80 variant: VL S26P; not shown: proprietary C-terminal FLAG tag) scFv: QVQLVQSGAEVKKPGASVKVSCKASGYTFTDYYLHWVRQAPGQGLEWMGWIDPENGDTEYAPKFQGRVTMTTDTSTSTAYMELRSLRSDDTAVYYCNANKELRYFDVWGQGTMVTVSSGGGGSGGGGSGGGGSEIVMTQSPATLSVSPGERATLSCRAPQSISINLHWYQQKPGQAPRLLIYFASQSISGIPARFSGSGSGTEFTLTISSLQSEDFAVYYCQQSNSFPLTFGGGTKVEIKR |
